{
  "source": "patent US20200317812A1",
  "about": "(AGENCY FOR SCIENCE TECHNOLOGY AND RESEARCH, published 2020)",
  "target": "T1, AXL receptor tyrosine kinase (Homo sapiens, UniProt P30530 26-894, O-linked glycan (site not stated) reported as the TAG_TNB1 epitope)",
  "T1 sequence (looked up)": "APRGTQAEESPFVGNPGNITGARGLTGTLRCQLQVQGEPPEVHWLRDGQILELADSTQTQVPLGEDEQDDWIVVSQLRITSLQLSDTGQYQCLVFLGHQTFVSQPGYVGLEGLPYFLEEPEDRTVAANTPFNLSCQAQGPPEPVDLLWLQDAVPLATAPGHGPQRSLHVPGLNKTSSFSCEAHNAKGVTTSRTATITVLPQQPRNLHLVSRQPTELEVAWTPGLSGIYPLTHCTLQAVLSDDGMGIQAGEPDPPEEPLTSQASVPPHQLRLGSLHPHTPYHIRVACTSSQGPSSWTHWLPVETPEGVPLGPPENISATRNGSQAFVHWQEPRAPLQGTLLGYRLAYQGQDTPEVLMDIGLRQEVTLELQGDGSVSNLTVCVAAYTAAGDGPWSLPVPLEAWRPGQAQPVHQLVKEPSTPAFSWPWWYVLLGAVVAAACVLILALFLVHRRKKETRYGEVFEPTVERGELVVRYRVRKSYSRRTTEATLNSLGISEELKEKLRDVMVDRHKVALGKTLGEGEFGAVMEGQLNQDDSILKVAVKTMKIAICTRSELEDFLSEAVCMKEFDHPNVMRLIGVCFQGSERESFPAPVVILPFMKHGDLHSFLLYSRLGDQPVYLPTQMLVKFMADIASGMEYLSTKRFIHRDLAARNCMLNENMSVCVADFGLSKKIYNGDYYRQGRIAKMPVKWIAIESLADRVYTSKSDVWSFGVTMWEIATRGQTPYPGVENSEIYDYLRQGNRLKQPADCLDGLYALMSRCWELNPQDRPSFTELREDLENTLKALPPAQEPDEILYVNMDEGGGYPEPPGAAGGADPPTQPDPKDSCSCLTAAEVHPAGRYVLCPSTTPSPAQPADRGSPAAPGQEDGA",
  "assay": "cell-based or functional assay",
  "data": [
    {"binder": "ch_TAG_TNB1-saporin (antibody, V domains shown, Saporin toxin directly conjugated to the antibody; site and chain not stated) VH: QVKLQESGAELVKPGASVKLSCKASGFTFTSYYMYWVKQRPGQGLEWIGGVSPSNGGANFNEKFKTKATLTVDKSSSTAYMQLSSLTSEDSAVYYCTRFLYGPRYFDVWGQGTTVTVSS VL: not shown", "values": [
      {"measurement": "IC50, Cell Titre Glo cell viability, BT549 cells", "result": 1.24, "unit": "nM"},
      {"measurement": "IC50, Cell Titre Glo cell viability, H1299 cells", "result": 0.0353, "unit": "nM"},
      {"measurement": "IC50, Cell Titre Glo cell viability, Hs578T cells", "result": 0.529, "unit": "nM"},
      {"measurement": "IC50, Cell Titre Glo cell viability, MDA-MB-231 cells", "result": 0.34, "unit": "nM"}
    ]}
  ]
}
